Assays:
[1] = biological target: DT390IL-4 fusion protein (murine) (UniProt P00588); experiment: cell-based or functional assay
[2] = biological target: IL-4 receptor (IL-4R) on C1498 tumor cells (UniProt P16382); experiment: cell-based or functional assay
Sequence of UniProt P16382 (P16382 26-810 limits assumed): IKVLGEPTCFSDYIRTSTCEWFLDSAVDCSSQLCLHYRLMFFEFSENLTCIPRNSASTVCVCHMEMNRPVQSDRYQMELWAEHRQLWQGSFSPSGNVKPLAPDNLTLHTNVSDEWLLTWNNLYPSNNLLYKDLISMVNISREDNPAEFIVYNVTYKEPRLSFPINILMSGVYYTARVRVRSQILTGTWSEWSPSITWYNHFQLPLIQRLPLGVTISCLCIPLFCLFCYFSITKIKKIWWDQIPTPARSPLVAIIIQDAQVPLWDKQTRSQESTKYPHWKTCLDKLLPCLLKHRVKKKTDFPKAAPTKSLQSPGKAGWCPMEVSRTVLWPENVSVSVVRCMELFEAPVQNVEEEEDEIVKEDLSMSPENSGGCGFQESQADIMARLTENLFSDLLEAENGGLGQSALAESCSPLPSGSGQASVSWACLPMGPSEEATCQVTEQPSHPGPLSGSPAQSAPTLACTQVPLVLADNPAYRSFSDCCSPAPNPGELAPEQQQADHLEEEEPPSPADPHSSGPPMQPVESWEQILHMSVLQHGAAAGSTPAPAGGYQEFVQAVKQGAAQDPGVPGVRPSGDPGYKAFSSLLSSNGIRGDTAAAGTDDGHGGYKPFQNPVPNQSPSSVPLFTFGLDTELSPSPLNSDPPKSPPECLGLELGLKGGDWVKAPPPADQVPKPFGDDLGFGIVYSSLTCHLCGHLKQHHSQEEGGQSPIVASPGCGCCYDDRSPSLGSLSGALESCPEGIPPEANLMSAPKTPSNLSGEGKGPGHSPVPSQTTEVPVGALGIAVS

Sequence of UniProt P00588 (P00588 33-390, tags or fused parts left off): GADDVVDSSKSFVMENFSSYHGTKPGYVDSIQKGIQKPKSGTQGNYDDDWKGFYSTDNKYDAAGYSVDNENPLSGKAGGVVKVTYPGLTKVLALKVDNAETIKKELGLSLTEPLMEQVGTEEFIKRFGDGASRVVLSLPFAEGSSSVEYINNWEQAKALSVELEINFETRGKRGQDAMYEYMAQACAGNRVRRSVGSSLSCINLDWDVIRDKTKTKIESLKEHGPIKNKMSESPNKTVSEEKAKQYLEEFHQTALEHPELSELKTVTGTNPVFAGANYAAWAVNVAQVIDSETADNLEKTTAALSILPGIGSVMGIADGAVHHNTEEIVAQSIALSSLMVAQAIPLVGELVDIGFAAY

| Substance | blocking of C1498 killing by DT390IL-4 [1] | viability of C1498 cells [2] | viability of IL-4R+ C1498 leukemia cells (trypan blue, live cell count) [2] |
| --- | --- | --- | --- |
| rat IgG1 anti-mouse IL-4 monoclonal antibody (Clone 11B11) | 20 µM | – | – |
| DT390IL-4 fusion protein (from UniProt P00588 33-390; P07750 21-140) | – | 10 nM | 1 nM |
